Reference: patent publication US7122360

Tests used:
[1] = tested on: GST-MSK1
[2] = tested on: GST-MAPKAP-K1a [GST: P08515]
[3] = tested on: T1, CREBtide
T1 sequence: EILSRRPSYRK

[4] = tested on: T2, peptide KKRNRTLSVA
T2 sequence: KKRNRTLSVA

[5] = tested on: T3, KKRNRTLSVA with the arginine at position n-3 changed to lysine
T3 sequence: KKRNKTLSVA

[6] = tested on: KKRNRTLSVA with the arginine at position n-5 changed to leucine
[7] = tested on: T4, Crosstide
T4 sequence: GRPRTSSFAEG

[8] = tested on: GST-CREB [GST: P08515]
Chain of GST-CREB [GST: P08515] (P08515 whole entry, looked up): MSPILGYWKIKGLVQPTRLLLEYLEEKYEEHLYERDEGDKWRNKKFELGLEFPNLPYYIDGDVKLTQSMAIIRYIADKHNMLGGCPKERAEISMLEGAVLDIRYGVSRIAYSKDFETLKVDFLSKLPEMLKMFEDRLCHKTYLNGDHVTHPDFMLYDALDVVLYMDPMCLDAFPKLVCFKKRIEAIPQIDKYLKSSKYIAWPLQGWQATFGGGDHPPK

[9] = tested on: heat shock protein 27

Chain of GST-MAPKAP-K1a [GST: P08515] (P08515 whole entry, looked up): as above
Chain of GST-MSK1 (chain, as listed by the source): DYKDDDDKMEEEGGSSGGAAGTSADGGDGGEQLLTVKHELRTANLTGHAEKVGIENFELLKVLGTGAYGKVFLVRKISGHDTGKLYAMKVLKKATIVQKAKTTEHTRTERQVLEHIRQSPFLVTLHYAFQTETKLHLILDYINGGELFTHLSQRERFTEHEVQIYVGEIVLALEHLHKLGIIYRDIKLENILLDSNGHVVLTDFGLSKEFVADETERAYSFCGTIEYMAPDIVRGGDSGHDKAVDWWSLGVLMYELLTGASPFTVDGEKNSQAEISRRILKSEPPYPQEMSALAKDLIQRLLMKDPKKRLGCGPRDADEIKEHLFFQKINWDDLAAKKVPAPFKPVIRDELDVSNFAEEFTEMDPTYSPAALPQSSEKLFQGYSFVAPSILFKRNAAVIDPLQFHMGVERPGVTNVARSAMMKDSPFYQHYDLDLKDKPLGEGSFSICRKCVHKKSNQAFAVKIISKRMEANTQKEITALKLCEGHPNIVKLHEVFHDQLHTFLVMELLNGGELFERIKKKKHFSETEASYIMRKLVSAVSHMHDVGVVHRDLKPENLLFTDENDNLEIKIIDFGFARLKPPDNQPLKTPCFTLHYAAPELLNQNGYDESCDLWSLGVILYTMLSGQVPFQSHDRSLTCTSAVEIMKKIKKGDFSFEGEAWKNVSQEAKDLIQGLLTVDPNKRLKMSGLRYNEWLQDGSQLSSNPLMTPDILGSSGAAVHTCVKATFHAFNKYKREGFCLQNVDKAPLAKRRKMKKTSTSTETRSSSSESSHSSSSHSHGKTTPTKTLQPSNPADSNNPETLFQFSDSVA

activated GST-SAPK1/JNK1γ
activation in vitro (activity towards Crosstide) [1]: did not activate
activation in vitro (activity towards Crosstide) [2]: did not activate

activated GST-SAPK3/p38γ
activation in vitro (activity towards Crosstide) [1]: did not activate
activation in vitro (activity towards Crosstide) [2]: did not activate

activated GST-SAPK4/p38δ
activation in vitro (activity towards Crosstide) [2]: did not activate

GST-MAPKAP-K1a
Km relative to MSK1 [3]: Km values that were at least 200-fold higher
Km and Vmax [4]: almost identical Km and Vmax values as for Crosstide
Km relative to KKRNRTLSVA [5]: increased the Km about 100-fold
Km relative to KKRNRTLSVA [6]: 5 fold
Km [7]: 2 to 3 µM
Km [8]: the Km was too high to be measured

GST-MAPKAP-K2
Km [8]: the Km was too high to be measured
phosphorylation of Ser98 relative to Ser133 of CREB [8]: 10-fold higher level than Ser133
phosphorylation of substrate in vitro [9]: much more active towards heat shock protein 27

activated GST-SAPK2a/p38a
activation in vitro (activity towards Crosstide) [1]: could also be activated similarly
activation in vitro (activity towards Crosstide) [2]: could not

activated GST-SAPK2b/p38β
activation in vitro (activity towards Crosstide) [1]: could also be activated similarly
activation in vitro (activity towards Crosstide) [2]: could not

activated GST-MAPK2/ERK2
activity towards Crosstide after incubation with MgATP and activated MAPK2/ERK2 [1]: enhanced over 100-fold
activity towards Crosstide after incubation with MgATP and activated MAPK2/ERK2 [2]: enhanced over 100-fold
